# Measured values taken from patent US20260226192.
# Test system: Engineered trastuzumab antibody design 18 [anti-Her2 ScFv-FC]
# Sequence (chain, as listed by the source, change not shown): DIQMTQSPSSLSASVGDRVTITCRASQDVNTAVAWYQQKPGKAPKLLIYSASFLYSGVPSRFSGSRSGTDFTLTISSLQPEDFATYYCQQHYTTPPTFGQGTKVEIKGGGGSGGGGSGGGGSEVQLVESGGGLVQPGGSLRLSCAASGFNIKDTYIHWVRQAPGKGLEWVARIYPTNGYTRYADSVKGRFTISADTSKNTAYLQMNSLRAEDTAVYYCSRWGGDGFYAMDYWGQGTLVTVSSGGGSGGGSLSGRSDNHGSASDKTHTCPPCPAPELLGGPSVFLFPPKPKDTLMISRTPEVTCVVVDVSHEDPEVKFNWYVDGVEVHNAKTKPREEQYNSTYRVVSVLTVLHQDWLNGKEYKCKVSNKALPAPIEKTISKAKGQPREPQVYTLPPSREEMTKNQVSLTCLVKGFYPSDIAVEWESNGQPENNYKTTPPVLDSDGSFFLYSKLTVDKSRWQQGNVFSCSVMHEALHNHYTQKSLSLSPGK
substance,measurement,value
uPA protease,"protease digestion with uPA (1:1 molar), SDS-PAGE",uPA cleaved the antibody variants and generated F(ab) fragments in a similar manner as it did for the other designs
